The data set deals with the molecule itself. In words: cryo-EM structure.

B1: AcrA, periplasmic membrane fusion protein of the AcrAB-TolC efflux pump (natural protein)
chain: CDDKQAQQGGQQMPAVGVVTVKTEPLQITTELPGRTSAYRIAEVRPQVSGIILKRNFKEGSDIEAGVSLYQIDPATYQATYDSAKGDLAKAQAAANIAQLTVNRYQKLLGTQYISKQEYDQALADAQQANAAVTAAKAAVETARINLAYTKVTSPISGRIGKSNVTEGALVQNGQATALATVQQLDPIYVDVTQSSNDFLRLKQELANGTLKQENGKAKVSLITSDGIKFPQDGTLEFSDVTVDQTTGSITLRAIFPNPDHTLLPGMFVRARLEEGLNPNAILVPQQGVTRTPRGDATVLVVGADDKVETRPIVASQAIGDKWLVTEGLKAGDRVVISGLQKVRPGVQVKAQEVTADNNQQAASGAQPEQSKS
For orientation: stoichiometry N means the number of molecules, sites or subunits per partner or assembly. For the protein B1, the “stoichiometry N” value was found to be 6.

The record behind these values is publication PMC8741639 (Structure (London, England : 1993), 2021).
